In article PMC8149123 one finds Pearson correlation coefficient of colocalisation and percent colocalization data, which are given here for one substance.

Experiment in all cases: mitochondrial relocalisation (mito-tag) assay, fluorescence microscopy; ANRP fused to Tom70-HA and mCherry held at the outer mitochondrial membrane in Drosophila embryos (cells at stage 12); ectopic recruitment of endogenous CRISPR Arp3:GFP scored by colocalisation, Pearson coefficient and GFP:mCherry intensity ratio; the paper says the approach does not differentiate between direct and indirect interactions

The target of experiment [1] is UAS:mito:mCherry:Coronin (D. melanogaster).
Experiment [2] deals with UAS:mito:mCherry:Cortactin (D. melanogaster).
UAS:mito:mCherry:Cortactin (D. melanogaster), sequence (main, as listed by the source): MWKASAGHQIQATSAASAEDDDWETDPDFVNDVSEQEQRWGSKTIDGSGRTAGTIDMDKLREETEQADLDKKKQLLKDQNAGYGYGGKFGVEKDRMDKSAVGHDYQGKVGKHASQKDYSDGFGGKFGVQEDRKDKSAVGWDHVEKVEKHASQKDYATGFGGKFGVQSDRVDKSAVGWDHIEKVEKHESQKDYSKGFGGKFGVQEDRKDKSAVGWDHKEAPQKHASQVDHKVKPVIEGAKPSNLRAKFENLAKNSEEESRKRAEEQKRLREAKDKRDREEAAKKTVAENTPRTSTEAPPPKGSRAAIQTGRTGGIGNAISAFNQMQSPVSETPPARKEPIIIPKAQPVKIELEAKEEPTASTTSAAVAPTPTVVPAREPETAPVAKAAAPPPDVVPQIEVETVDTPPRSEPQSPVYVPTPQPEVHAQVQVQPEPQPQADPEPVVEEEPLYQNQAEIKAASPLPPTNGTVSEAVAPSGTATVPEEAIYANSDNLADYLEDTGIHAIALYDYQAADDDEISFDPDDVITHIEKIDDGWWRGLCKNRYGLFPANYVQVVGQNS
The target of experiment [3] is UAS:mito:mCherry:DPod1 (D. melanogaster).
For experiment [4], the target named is UAS:mito:mCherry:Scar (D. melanogaster).

CRISPR Arp3:GFP, sequence (P32392 whole entry): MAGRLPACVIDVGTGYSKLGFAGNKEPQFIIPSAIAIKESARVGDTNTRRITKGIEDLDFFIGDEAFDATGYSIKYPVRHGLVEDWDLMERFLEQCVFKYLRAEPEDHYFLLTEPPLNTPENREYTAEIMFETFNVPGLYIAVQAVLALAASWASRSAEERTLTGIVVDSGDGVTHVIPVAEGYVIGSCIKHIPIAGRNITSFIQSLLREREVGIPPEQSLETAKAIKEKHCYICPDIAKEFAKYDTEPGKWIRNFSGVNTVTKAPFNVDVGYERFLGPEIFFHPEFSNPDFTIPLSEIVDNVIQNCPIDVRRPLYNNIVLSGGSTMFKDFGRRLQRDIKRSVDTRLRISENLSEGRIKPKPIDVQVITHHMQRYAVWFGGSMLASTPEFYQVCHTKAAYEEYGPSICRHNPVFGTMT

For “CRISPR Arp3:GFP (from UniProt P32392 1-418) (natural protein)”, the Pearson correlation coefficient of colocalisation came to 0.234 in experiment [1], 0.492 in experiment [2], 0.625 in experiment [3] and 0.313 in experiment [4]. The percent colocalization in experiment [4] was 50%.
